Here are results for two molecules from patent US20230250135A1 (Janssen / Centocor, published 2023).

The target in one test is UFV161333 (influenza A virus A/Hong Kong/1/68 …).
A further test addresses UFV161715 (influenza A virus A/Hong Kong/1/68 …). The test can be described thus: Binding-AlphaLISA, Expi293F supernatant, normalized to UFV161333.
For another test, the target named is UFV161721 (influenza A virus A/Hong Kong/1/68 …). Described as above.
A further test deals with UFV171004 (influenza A virus A/Hong Kong/1/68 …). The test can be described thus: ELISA on purified polypeptide. Background: In an ELISA, binding on a coated surface is turned into a signal by an enzyme label.
A further test concerns the target UFV170051 (influenza A virus A/Hong Kong/1/68 …). The test can be described thus: Binding-AlphaLISA, Expi293F supernatant, reference UFV170051. In general terms: Alpha assays give light when donor and acceptor beads are brought close together.

B1: SD15013 (VHH)
VHH: EVQLVESGGGLVQAGDSLRISCAASGRTLSIYSMGWFRQAPGKEREFVATIGWNSGRTFYPDSLKGRFTISRDNARNTLYLQMNNLRPEDTAVYYCAAAKGPLRLSSQADYWGQGTQVTVSS
B1: in the test with UFV161333, the “fold increase in binding relative to reference UFV161686” value turned out to be 10 fold. For the same molecule, the “binding relative to reference UFV161333” value with UFV161715 and with UFV161721 was roughly 60% each time.

B2: CT149 (antibody, V domains shown)
VH: QVQLVQSGAEVKKPGASVKVSCKTSGYSFSTYGVSWVRQAPGQGPEWVGWISAYTGITDYAQKFQGRVTLTTDATTATAFLDLRSLRPDDTATYFCARDKVQGRVEVGSGGRHDYWGQGTLVIVSS
VL: EVVLTQSPGTLALPPGERATLSCRASHRVGSTYIAWYQQKSGQAPRRLIYGASNRATDIPDRFSGSGSGTDFTLTIRRLEPEDSAVYYCQQFSVSPWTFGQGTRVEIK
Take B2: in the test with UFV171004, the EC50 (in general, the concentration giving half of the maximal effect) was less than 0.01 nM. The binding result with UFV170051 is “binds”. For the same molecule, the “binding relative to reference UFV161333” value with UFV161715 is roughly 90%.
